Assay results reported in the supplement of paper PMC9233669.
Fewer inactive variants are shown than the library holds.

What was measured:
biotinyl-Phe-oxazolone = assay: self-aminoacylation, catalytic enhancement (BFO) (fold over background); higher = more active; k-Seq, kA / k0A0; sequences stand for … in GGGAAUGGAUCCACAUCUACGAAUUC…UUCACUGCAGACUUGACGAAGCUG
How it was run: (§1)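 Mutagenized RNA pools with a 21-nt variable region (0.43 μM) were reacted with each biotinyl-aminoacyl-oxazolone at 2–1250 μM for 90 minutes at room temperature, in 50 μL HEPES/NaCl/KCl/MgCl2/CaCl2 buffer containing 5% acetonitrile at pH 6.9–7.0. RNA captured on streptavidin was quantified by triplicate qPCR and by Illumina sequencing. The fraction reacted for each sequence was fit to a pseudo-first-order model with bootstrapping, and catalytic enhancement is the median kA divided by the uncatalyzed rate, taken as the low-activity peak of a bimodal Gaussian fit.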

biotinyl-Trp-oxazolone = assay: self-aminoacylation, catalytic enhancement (BWO) (fold over background); higher = more active; k-Seq, kA / k0A0; sequences stand for … in GGGAAUGGAUCCACAUCUACGAAUUC…UUCACUGCAGACUUGACGAAGCUG
How it was run: as §1

biotinyl-Leu-oxazolone = assay: self-aminoacylation, catalytic enhancement (BLO) (fold over background); higher = more active; k-Seq, kA / k0A0; sequences stand for … in GGGAAUGGAUCCACAUCUACGAAUUC…UUCACUGCAGACUUGACGAAGCUG
How it was run: as §1

biotinyl-Ile-oxazolone = assay: self-aminoacylation, catalytic enhancement (BIO) (fold over background); higher = more active; k-Seq, kA / k0A0; sequences stand for … in GGGAAUGGAUCCACAUCUACGAAUUC…UUCACUGCAGACUUGACGAAGCUG
How it was run: as §1

biotinyl-Met-oxazolone = assay: self-aminoacylation, catalytic enhancement (BMO) (fold over background); higher = more active; k-Seq, kA / k0A0; sequences stand for … in GGGAAUGGAUCCACAUCUACGAAUUC…UUCACUGCAGACUUGACGAAGCUG
How it was run: as §1

biotinyl-Val-oxazolone = assay: self-aminoacylation, catalytic enhancement (BVO) (fold over background); higher = more active; k-Seq, kA / k0A0; sequences stand for … in GGGAAUGGAUCCACAUCUACGAAUUC…UUCACUGCAGACUUGACGAAGCUG
How it was run: as §1

Sequence	self-aminoacylation (biotinyl-Phe-oxazolone)	self-aminoacylation (biotinyl-Trp-oxazolone)	self-aminoacylation (biotinyl-Leu-oxazolone)	self-aminoacylation (biotinyl-Ile-oxazolone)	self-aminoacylation (biotinyl-Met-oxazolone)	self-aminoacylation (biotinyl-Val-oxazolone)
CGACACUUCAAGCAAUCGAUC [Fam1B.1 aminoacylation ribozyme variant]	0.965	0.715	0.611	0.672	0.582	0.727
CGACACUUCAAGCAAUCGGAC [Fam1B.1 aminoacylation ribozyme variant]	1.21	1.31	1.57	1.67	1.74	1.31
CGACACUUCAAGCAAUCGUUC [Fam1B.1 aminoacylation ribozyme variant]	1	0.465	0.669	0.778	0.629	0.946
CGACACUUCAAGCAAUCUGUC [Fam1B.1 aminoacylation ribozyme variant]	0.656	0.416	0.411	0.554	0.52	0.51
CGACUUCAAACAAUCGGGCUG [Fam1A.1 aminoacylation ribozyme variant]	10.4	12.7	2.34	2.45	2.05	2.73
CGACUUCAAACAAUCUGUCUG [Fam1A.1 aminoacylation ribozyme variant]	3.02	1.84	0.664	0.926	0.815	0.86
CGACUUCAAACAAUGGGUCUG [Fam1A.1 aminoacylation ribozyme variant]	0.777	0.968	0.941	1.2	1.2	1.09
CGACUUCAAACAUUCGGUCUG [Fam1A.1 aminoacylation ribozyme variant]	8.04	2.1	1.43	1.81	1.49	1.96
CGACUUCAAACCAUCGGUCUG [Fam1A.1 aminoacylation ribozyme variant]	0.966	0.886	0.811	0.838	0.807	1.08
CGACUUCAUACAAUCGGUCUG [Fam1A.1 aminoacylation ribozyme variant]	1.01	0.879	0.738	0.939	0.796	0.904
CGUACCCUGGUCAUCGAGUGA [Fam2.1 aminoacylation ribozyme variant]	10.1	10.9	9.81	4.66	8.76	5.62
CGUCACCUAGGUCAUCGGGUG [Fam2.2 aminoacylation ribozyme variant]	28.9	6	4.11	3.51	3.71	5.16
CUAAUACAAACAAUCGGUCUG [Fam1A.1 aminoacylation ribozyme variant]	0.757	0.678	0.477	0.676	0.674	0.682
CUAAUGCAAACAAUCGGUCUG [Fam1A.1 aminoacylation ribozyme variant]	0.853	0.581	0.55	0.612	0.631	0.577
CUAAUUCAAACAAUCGGGCUG [Fam1A.1 aminoacylation ribozyme variant]	1.49	1.14	1.02	0.805	0.87	0.852
CUAAUUCAAACAGUCGGUCUG [Fam1A.1 aminoacylation ribozyme variant]	0.62	0.523	0.915	0.839	0.731	0.853
CUAAUUCAACCAAUCGGUCUG [Fam1A.1 aminoacylation ribozyme variant]	2.11	1.19	0.676	0.66	0.63	0.741
CUAAUUCAAUCAAUCGGUCUG [Fam1A.1 aminoacylation ribozyme variant]	4.62	2.7	0.735	0.805	0.742	0.72
CUACAACAAACAAUCGGUCUG [Fam1A.1 aminoacylation ribozyme variant]	0.946	0.491	0.743	0.646	0.496	0.642
CUACAAUUCAAGCAAUCGGUC [Fam1B.1 aminoacylation ribozyme variant]	2.71	1.61	0.75	0.902	0.819	0.779
CUACACUUAAAGCAAUCGGUC [Fam1B.1 aminoacylation ribozyme variant]	0.694	0.459	0.696	0.786	0.713	0.738

Sequence	self-aminoacylation (biotinyl-Phe-oxazolone)	self-aminoacylation (biotinyl-Trp-oxazolone)	self-aminoacylation (biotinyl-Leu-oxazolone)	self-aminoacylation (biotinyl-Ile-oxazolone)	self-aminoacylation (biotinyl-Met-oxazolone)	self-aminoacylation (biotinyl-Val-oxazolone)
CUACACUUCAAGCAAUCGGCC [Fam1B.1 aminoacylation ribozyme variant]	6.22	5.03	2.41	1.82	1.69	1.75
CUACACUUCAAGCAAUCGGUG [Fam1B.1 aminoacylation ribozyme variant]	5.79	4.25	4.94	2.71	3.49	2.61
CUACACUUCAAGCACUCGGUC [Fam1B.1 aminoacylation ribozyme variant]	0.867	0.614	0.757	0.886	0.786	0.945
CUACACUUCAAGCAGUCGGUC [Fam1B.1 aminoacylation ribozyme variant]	0.895	0.628	0.741	0.775	0.739	0.758
CUACACUUCUAGCAAUCGGUC [Fam1B.1 aminoacylation ribozyme variant]	0.693	0.565	0.669	0.706	0.572	0.635
CUACACUUUAAGCAAUCGGUC [Fam1B.1 aminoacylation ribozyme variant]	0.979	0.565	0.585	0.768	0.63	0.74
CUACAUCAAACAAUCGGACUG [Fam1A.1 aminoacylation ribozyme variant]	1.11	0.749	0.586	1.1	0.804	0.974
CUACAUCAAACAAUCGGCCUG [Fam1A.1 aminoacylation ribozyme variant]	2.89	2.21	1.41	1.25	1.35	1.25
CUACAUCAAACAAUCGGUCCG [Fam1A.1 aminoacylation ribozyme variant]	0.932	0.83	0.805	0.838	1.1	0.872
CUACAUCAAACCAUCGGUCUG [Fam1A.1 aminoacylation ribozyme variant]	1.04	0.6	0.889	0.834	0.791	0.932
CUACAUCAAAGAAUCGGUCUG [Fam1A.1 aminoacylation ribozyme variant]	0.801	0.67	0.592	0.78	0.817	0.68
CUACAUCAACCAAUCGGUCUG [Fam1A.1 aminoacylation ribozyme variant]	1.44	0.796	0.554	0.643	0.748	0.781
CUACCUCAAACAAGCGGUCUG [Fam1A.1 aminoacylation ribozyme variant]	5.07	1.11	0.828	1.25	1.57	0.97
CUACCUCAAACAAUCGGUCUA [Fam1A.1 aminoacylation ribozyme variant]	1.45	0.934	0.89	1.01	1.16	0.885
CUACGCUUCAAGCAAUCGGUC [Fam1B.1 aminoacylation ribozyme variant]	59.9	29.9	1.86	0.964	1.14	1.06
CUACGUCAAACAUUCGGUCUG [Fam1A.1 aminoacylation ribozyme variant]	12.8	3.07	2.5	2.87	2.93	3.79
CUACUACAAACAAACGGUCUG [Fam1A.1 aminoacylation ribozyme variant]	0.827	0.575	0.648	0.874	0.673	0.857
CUACUACAAACAAUCGGUCUG [Fam1A.1 aminoacylation ribozyme variant]	1.24	0.73	0.608	0.694	0.634	0.743
CUACUACAAACAAUCGGUCUU [Fam1A.1 aminoacylation ribozyme variant]	0.658	0.511	0.515	0.533	0.565	0.675
CUACUACAAACAAUCGUUCUG [Fam1A.1 aminoacylation ribozyme variant]	0.604	0.338	0.538	0.648	0.468	0.649
CUACUACAAACGAUCGGUCUG [Fam1A.1 aminoacylation ribozyme variant]	0.437	0.607	0.656	0.821	0.915	0.797
